Assay results from patent publication US20230133141A1 (HONG KONG POLYTECHNIC UNIVERSITY, published 2023).
Non-standard residues stand in square brackets, D forms with d.

T1: full-length ITGA2 (UniProt P17301 30-1181, limits assumed)
T1 construct: whole, on cells; Whole protein expressed in cells; cells were lysed for co-immunoprecipitation; Any tag of the pCMV-ITGA2-CH plasmid is not described; also called integrin ITGA2
T1 sequence (looked up): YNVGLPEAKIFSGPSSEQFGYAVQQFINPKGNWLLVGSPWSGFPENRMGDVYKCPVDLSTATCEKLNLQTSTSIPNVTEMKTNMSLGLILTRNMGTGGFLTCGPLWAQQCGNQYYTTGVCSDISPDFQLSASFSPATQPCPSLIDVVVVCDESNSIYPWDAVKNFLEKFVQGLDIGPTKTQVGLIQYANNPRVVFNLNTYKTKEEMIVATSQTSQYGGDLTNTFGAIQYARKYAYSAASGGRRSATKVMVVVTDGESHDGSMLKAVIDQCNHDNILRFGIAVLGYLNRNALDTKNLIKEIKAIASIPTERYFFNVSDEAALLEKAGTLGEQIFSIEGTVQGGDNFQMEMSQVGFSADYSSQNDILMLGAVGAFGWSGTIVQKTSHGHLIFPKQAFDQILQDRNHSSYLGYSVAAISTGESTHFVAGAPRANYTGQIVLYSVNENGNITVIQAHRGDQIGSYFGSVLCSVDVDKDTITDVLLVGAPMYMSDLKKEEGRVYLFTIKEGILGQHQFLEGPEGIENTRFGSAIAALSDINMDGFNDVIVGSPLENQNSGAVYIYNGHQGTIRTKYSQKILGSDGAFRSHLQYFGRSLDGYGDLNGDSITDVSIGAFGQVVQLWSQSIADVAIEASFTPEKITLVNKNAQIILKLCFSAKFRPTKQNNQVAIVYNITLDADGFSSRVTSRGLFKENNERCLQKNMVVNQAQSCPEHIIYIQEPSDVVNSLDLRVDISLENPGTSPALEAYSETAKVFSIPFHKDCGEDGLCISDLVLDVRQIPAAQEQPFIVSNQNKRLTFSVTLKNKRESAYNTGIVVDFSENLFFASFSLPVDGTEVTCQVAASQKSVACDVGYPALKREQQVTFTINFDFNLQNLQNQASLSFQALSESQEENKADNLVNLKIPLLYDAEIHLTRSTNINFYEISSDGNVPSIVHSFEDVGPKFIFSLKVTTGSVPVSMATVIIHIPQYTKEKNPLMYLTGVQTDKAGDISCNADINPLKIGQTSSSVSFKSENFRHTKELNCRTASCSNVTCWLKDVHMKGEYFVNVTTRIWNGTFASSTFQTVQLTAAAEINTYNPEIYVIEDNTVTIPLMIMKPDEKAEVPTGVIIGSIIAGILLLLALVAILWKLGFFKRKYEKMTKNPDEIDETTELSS

T2: KLGFFKR motif-deficient (dm) ITGA2 (UniProt P17301 30-1181)
T2 construct: whole, on cells; Deletion of the seven residues KLGFFKR; also called A2dm; motif-deficient ITGA2
T2 sequence (looked up): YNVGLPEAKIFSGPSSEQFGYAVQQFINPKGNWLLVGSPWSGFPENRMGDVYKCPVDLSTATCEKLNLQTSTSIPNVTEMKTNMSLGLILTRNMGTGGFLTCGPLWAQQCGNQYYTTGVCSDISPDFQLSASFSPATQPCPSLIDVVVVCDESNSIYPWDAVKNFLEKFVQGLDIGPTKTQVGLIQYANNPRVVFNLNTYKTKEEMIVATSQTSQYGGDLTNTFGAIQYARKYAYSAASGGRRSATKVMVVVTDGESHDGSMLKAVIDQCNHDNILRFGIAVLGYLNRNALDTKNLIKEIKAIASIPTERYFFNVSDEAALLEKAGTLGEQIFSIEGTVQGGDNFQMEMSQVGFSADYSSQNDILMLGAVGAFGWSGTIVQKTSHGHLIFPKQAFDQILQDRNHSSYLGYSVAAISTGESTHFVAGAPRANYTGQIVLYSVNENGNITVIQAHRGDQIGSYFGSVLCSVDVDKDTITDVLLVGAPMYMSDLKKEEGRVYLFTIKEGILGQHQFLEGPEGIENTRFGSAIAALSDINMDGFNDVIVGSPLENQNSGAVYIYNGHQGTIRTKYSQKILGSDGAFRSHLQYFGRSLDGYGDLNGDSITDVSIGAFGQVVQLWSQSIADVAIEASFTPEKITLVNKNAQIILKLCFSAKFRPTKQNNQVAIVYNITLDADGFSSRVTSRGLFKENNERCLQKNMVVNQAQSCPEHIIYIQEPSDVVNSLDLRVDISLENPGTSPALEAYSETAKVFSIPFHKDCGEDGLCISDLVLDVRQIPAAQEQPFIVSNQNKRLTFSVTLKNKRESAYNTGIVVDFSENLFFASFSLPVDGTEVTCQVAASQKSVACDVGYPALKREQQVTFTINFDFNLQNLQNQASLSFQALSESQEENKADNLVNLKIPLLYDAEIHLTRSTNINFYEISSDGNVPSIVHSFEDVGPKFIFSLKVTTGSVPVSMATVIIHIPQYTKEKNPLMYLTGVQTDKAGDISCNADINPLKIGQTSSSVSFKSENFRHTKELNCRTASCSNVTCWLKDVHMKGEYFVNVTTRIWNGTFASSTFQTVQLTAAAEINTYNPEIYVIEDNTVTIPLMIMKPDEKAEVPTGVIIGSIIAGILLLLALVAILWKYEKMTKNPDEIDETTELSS

B1: calreticulin (CRT) (other, UniProt P27797 18-417, looked up)
chain: EPAVYFKEQFLDGDGWTSRWIESKHKSDFGKFVLSSGKFYGDEEKDKGLQTSQDARFYALSASFEPFSNKGQTLVVQFTVKHEQNIDCGGGYVKLFPNSLDQTDMHGDSEYNIMFGPDICGPGTKKVHVIFNYKGKNVLINKDIRCKDDEFTHLYTLIVRPDNTYEVKIDNSQVESGSLEDDWDFLPPKKIKDPDASKPEDWDERAKIDDPTDSKPEDWDKPEHIPDPDAKKPEDWDEEMDGEWEPPVIQNPEYKGEWKPRQIDNPDYKGTWIHPEIDNPEYSPDPSIYAYDNFGVLGLDLWQVKSGTIFDNFLITNDEAYAEEFGNETWGVTKAAEKQMKDKQDEEQRLKEEEEDKKRKEEEEAEDKEDDEDKDEDEEDEEDKEEDEEEDVPGQAKDEL
notes: Endogenous protein in cell lysate; pulled down with anti-CRT antibody
B2: DRI-TAT-SP peptide (D-retro-inverso form of TAT-SP) (peptide)
peptide: Ac-[dR][dE][dP][dV][dC][dL][dC][dR]G[dI][dV][dW][dR][dQ][dV][dA][dP][dP][dF]G[dL][dE][dS][dR][dR][dR][dQ][dR][dR][dK][dK][dR]-NH2
modifications: cysteine pairing not given here

Experiments:
full-length ITGA2 [1] = biological target: T1, full-length ITGA2; assay: co-immunoprecipitation with anti-CRT antibody from cell lysate, Western blot
[2] = biological target: T2, KLGFFKR motif-deficient (dm) ITGA2; assay: co-immunoprecipitation with anti-CRT antibody, Western blot
full-length ITGA2 [3] = biological target: T1, full-length ITGA2; assay: cell-based or functional assay

Row | Binder | binding result (full-length ITGA2 [1]) | binding result [2] | EC50 of reversing chemoresistance in BCSCs in the presence of DOX (MTS assay) (full-length ITGA2 [3]) [µM]
1 | B1 | binds | no binding | –
2 | B2 | – | – | 2.3
